Measured values: paper PMC10095280
Values belong to the substance of their own block, whether it stands above or below them.

Assays:
β-arrestin2 [1] = target: β-arrestin2 (UniProt P32121); assay: direct BRET, D1R-Rluc8 and β-arrestin2-mVenus; conditions: reference: wild type
β-arrestin2 [2] = target: β-arrestin2 (UniProt P32121); assay: bystander BRET, β-arrestin2-Rluc2 to membrane GFP-CAAX; conditions: for percent of reference: reference: wild type
β-arrestin2 [3] = target: β-arrestin2 (UniProt P32121); assay: β-arrestin recruitment BRET, type not stated; conditions: reference: wild type; sites S417,S421,T428,S431,T439,S441,S445,T446
[4] = sites S256,S258,S259,T360,S362,S372,S373,S380,T428,S431,T439,S441,S445,T446

Substance: D1 dopamine receptor (D1R) (from UniProt P18901) PKC-null
- other: Emax, % of WT D1R (β-arrestin2 [2]; reference: PKC-null + A259S (S259 restored), sites S259): same; reference 59 ± 9.4

Substance: D1 dopamine receptor (D1R) (from UniProt P18901) PKC-null (S259A/S397A/S398A/S417A/S421A)
- percent of reference (β-arrestin2 [2]; sites S259,S397,S398,S417,S421): weaker; reference 100

Substance: D1 dopamine receptor (D1R) (from UniProt P18901) S2/S3/S4 mutant (S256A/S258A/S259A)
- percent of reference (β-arrestin2 [2]; sites S256,S258,S259): weaker; reference 100

Substance: D1 dopamine receptor (D1R) (from UniProt P18901) T5V (T360V)
- percent of reference (β-arrestin2 [1]; sites T360): weaker; reference 100

Substance: D1 dopamine receptor (D1R) (from UniProt P18901) T5V/S6A (T360V/S362A)
- percent of reference (β-arrestin2 [1]; sites T360,S362): weaker; reference 100
- percent of reference (β-arrestin2 [2]; sites T360,S362): weaker; reference 100

Substance: D1 dopamine receptor (D1R) (from UniProt P18901) Tail Total (all 20 C-terminal S/T mutated)
- percent of reference (β-arrestin2 [1]; sites S342,T343,T353,T354,T360,S362,S372,S373,S380,S382,S397,S398,S417,S421,T428,S431,T439,S441,S445,T446): weaker; reference 100

Next, values leading:

- percent of reference (β-arrestin2 [1]; [4]): lost; reference 100
- percent of reference (β-arrestin2 [2]; [4]): lost; reference 100
Substance: D1 dopamine receptor (D1R) (from UniProt P18901) GRK-null (14 GRK sites mutated)

- percent of reference (β-arrestin2 [1]; sites S362): weaker; reference 100
Substance: D1 dopamine receptor (D1R) (from UniProt P18901) S6A (S362A)

- percent of reference (β-arrestin2 [3]): weaker; reference 100
Substance: D1 dopamine receptor (D1R) (from UniProt P18901) S13–S20 mutant (8 distal C-terminal S/T mutated)

- other: Emax, % of full-length WT D1R (β-arrestin2 [2]; reference: D1R T1 truncation, sites T360,S362): weaker; reference 112 ± 5.1
Substance: D1 dopamine receptor (D1R) T1 truncation, stop after 370 (from UniProt P18901) D1R T1 + T5V/S6A
